We go through two molecules from patent CN114478784A (SHAANXI PULSE ELEMENT BIOTECHNOLOGY LTD COMPANY, dated 2022).

In experiment [1] the target is 纯化的ENO2蛋白 (purified ENO2 protein coated in Example 7) (UniProt P09104 1-434, limits assumed). The experiment can be described thus: ELISA, ENO2 coated at 100 ng/well, 293T supernatant, HRP anti-heavy-chain IgG / anti-kappa secondary, OD450.
In experiment [2] the target is T1, ENO2 with C-terminal flag tag (ENO2flag-pcDNA3.1, expressed in transfected cells, lysate) (UniProt P09104 2-434).
T1 construct: Denatured cell lysate on SDS-PAGE / PVDF membrane (Western blot); also called ENO2抗原; not shown: C-terminal flag tag
Put plainly: Western blot, lysate of cells transfected with ENO2flag-pcDNA3.1, hybridoma supernatant as primary antibody.

In experiment [3] the target is T2, ENO2-GST (human ENO2 expressed from pGEX 4t-1, GST-purified) (human, UniProt P09104 1-434).
T2 construct: Expressed in E. coli BL21(DE3) and used to coat the ELISA plates; also called pGEX 4t-1载体表达的ENO2; ENO2抗原; not shown: GST tag of vector pGEX 4t-1
The experiment can be described thus: ELISA screening of hybridoma supernatants on coated ENO2-GST (100 ng/well), three rounds of subcloning.

Chain of 纯化的ENO2蛋白 (purified ENO2 protein coated in Example 7) (P09104 whole entry): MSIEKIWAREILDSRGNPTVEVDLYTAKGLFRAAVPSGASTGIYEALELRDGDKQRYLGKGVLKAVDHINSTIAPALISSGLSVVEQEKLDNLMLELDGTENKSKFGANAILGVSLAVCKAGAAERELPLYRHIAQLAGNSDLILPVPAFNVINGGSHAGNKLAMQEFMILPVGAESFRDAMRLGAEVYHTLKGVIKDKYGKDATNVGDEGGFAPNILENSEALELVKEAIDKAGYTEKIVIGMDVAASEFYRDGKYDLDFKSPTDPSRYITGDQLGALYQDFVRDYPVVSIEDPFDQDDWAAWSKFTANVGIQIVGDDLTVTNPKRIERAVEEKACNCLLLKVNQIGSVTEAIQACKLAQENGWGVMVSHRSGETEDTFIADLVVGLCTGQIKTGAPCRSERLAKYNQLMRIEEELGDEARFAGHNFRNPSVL
T2 sequence (P09104 whole entry): as above
T1 sequence (P09104 2-434 limits assumed): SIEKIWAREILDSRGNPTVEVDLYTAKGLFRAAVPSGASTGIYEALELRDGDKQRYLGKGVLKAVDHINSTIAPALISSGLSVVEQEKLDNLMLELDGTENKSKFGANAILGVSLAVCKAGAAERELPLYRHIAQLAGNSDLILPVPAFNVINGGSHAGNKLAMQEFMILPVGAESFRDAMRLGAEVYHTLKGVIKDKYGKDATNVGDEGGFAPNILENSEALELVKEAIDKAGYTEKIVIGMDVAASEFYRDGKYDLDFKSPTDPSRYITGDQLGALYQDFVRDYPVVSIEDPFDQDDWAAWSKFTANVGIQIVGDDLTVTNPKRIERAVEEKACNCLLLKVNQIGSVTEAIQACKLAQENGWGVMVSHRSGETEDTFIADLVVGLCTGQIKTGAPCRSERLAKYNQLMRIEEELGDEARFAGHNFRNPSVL

B1: 1C5mk alone (recombinant 1C5 light chain, transfected without the heavy chain) (other)
light: QAVVTQESALTTSPGETVTLTCRSNTGAVTTSNYANWVQEKPDHLFTGLIGGTYNRAPGVPARFSGSLIGDKAALTITGAQTEDEAIYFCSLWYSNHWVFGGGTKLTVLRADAAPTVSIFPPSSEQLTSGGASVVCFLNNFYPKDINVKWKIDGSERQNGVLNSWTDQDSKDSTYSMSSTLTLTKDEYERHNSYTCEATHKTSTSPIVKSFNRNEC
notes: Tested as supernatant of 293T cells transfected with the light chain plasmid only; also called 轻链1C5mk
B1: the binding result in experiment [1] is recorded as “no binding”.

B2: ENO2单克隆抗体1C5 (from hybridoma) (antibody, V domains shown)
VH: EVKLVESGGDLVQPGGSLRLSCATSGFTFTDYYMIWVRQPPGKALEWLGFIRNKANGYTTQYNASVKGRFTISRDNSQSILYLQMNTLRPEDSATYYCVRDRRGTTFAYWGQGTLVTVSA
VL: QAVVTQESALTTSPGETVTLTCRSNTGAVTTSNYANWVQEKPDHLFTGLIGGTYNRAPGVPARFSGSLIGDKAALTITGAQTEDEAIYFCSLWYSNHWVFGGGTKLTVL
notes: It was used as hybridoma culture supernatant in the assays; also called 1C5单克隆抗体; 杂交瘤细胞上清
In the case of B2, the binding result in experiment [2] and in experiment [3] was “binds” throughout.
